Experimental data taken from patent publication US20030186281A1, “Modified tetracycline repressor protein compositions and methods of use” (priority 2001, published 2003).

Tested on: tet operator sequence
Experiment: β-galactosidase activity of a tetracycline-regulated promoter in transformed E. coli with revTetR, in the presence and absence of anhydrotetracycline (atc)
Assay type: cell-based, Escherichia coli
Conditions: for β-Galactosidase Activity, Cultured Without ATC: RevTetR isolate cultured in the absence of anhydrotetracycline (ATC); for β-Galactosidase Activity, Cultured With ATC: RevTetR isolate cultured in the presence of anhydrotetracycline (ATC)
In short: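 TetR(BD) chimera mutants (TetR(B) residues 1–50, TetR(D) 51–208) expressed in E. coli regulating a tet operator-controlled lacZ. β-Galactosidase measured in Miller units at 28 °C and 37 °C with and without anhydrotetracycline; reported as percent of maximal expression without Tet repressor.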

Row | Molecule | β-Galactosidase Activity, Cultured Without ATC | β-Galactosidase Activity, Cultured With ATC
1 | TetRrevAtc4-22: revTetR(BD) R49H A56P V57L L60M (protein, Modified tetracycline repressor, revTetR(BD) R49H A56P V57L L60M) MSRLDKSKVINSALELLNEVGIEGLTTRKLAQKLGVEQPTLYWHVKNKHALLDALPLEIMARHHDYSLPAAGESWQSFLRNNAMSFRRALLRYRDGAKVHLGTRPDEKQYDTVETQLRFMTENGFSLRDGLYAISAVSHFTLGAVLEQQEHTAALTDRPAAPDENLPPLLREALQIMDSDDGEQAFLHGLESLIRGFEVQLTALLQIV | 80.2859 | 3.7584
2 | TetRrevAtc4-47: revTetR(BD) L51L E58A I59N H63Y (protein, Modified tetracycline repressor, revTetR(BD) L51L E58A I59N H63Y) MSRLDKSKVINSALELLNEVGIEGLTTRKLAQKLGVEQPTLYWHVKNKRALLDALAVANLERYNDYSLPAAGESWQSFLRNNAMSFRRALLRYRDGAKVHLGTRPDEKQYDTVETQLRFMTENGFSLRDGLYAISAVSHFTLGAVLEQQEHTAALTDRPAAPDENLPPLLREALQIMDSDDGEQAFLHGLESLIRGFEVQLTALLQIV | 83.987 | 13.969
3 | TetRrevAtc4-4: revTetR(BD) I59S R62S (protein, Modified tetracycline repressor, revTetR(BD) I59S R62S) MSRLDKSKVINSALELLNEVGIEGLTTRKLAQKLGVEQPTLYWHVKNKRALLDALAVESLASHHDYSLPAAGESWQSFLRNNAMSFRRALLRYRDGAKVHLGTRPDEKQYDTVETQLRFMTENGFSLRDGLYAISAVSHFTLGAVLEQQEHTAALTDRPAAPDENLPPLLREALQIMDSDDGEQAFLHGLESLIRGFEVQLTALLQIV | 70.5665 | 2.5363
4 | TetRrevAtc4-61: revTetR(BD) L51L A56V I59H R62L (protein, Modified tetracycline repressor, revTetR(BD) L51L A56V I59H R62L) MSRLDKSKVINSALELLNEVGIEGLTTRKLAQKLGVEQPTLYWHVKNKRALLDALVVEHLALHHDYSLPAAGESWQSFLRNNAMSFRRALLRYRDGAKVHLGTRPDEKQYDTVETQLRFMTENGFSLRDGLYAISAVSHFTLGAVLEQQEHTAALTDRPAAPDENLPPLLREALQIMDSDDGEQAFLHGLESLIRGFEVQLTALLQIV | 88.785 | 23.831
5 | TetRrevAtc4-6: revTetR(BD) D53Y L55L A56P R62L (protein, Modified tetracycline repressor, revTetR(BD) D53Y L55L A56P R62L) MSRLDKSKVINSALELLNEVGIEGLTTRKLAQKLGVEQPTLYWHVKNKRALLYALPVEILALHHDYSLPAAGESWQSFLRNNAMSFRRALLRYRDGAKVHLGTRPDEKQYDTVETQLRFMTENGFSLRDGLYAISAVSHFTLGAVLEQQEHTAALTDRPAAPDENLPPLLREALQIMDSDDGEQAFLHGLESLIRGFEVQLTALLQIV | 108.478 | 23.873
6 | TetRrevAtc4-24: revTetR(BD) A56P V57A E58Q H63Q (protein, Modified tetracycline repressor, revTetR(BD) A56P V57A E58Q H63Q) MSRLDKSKVINSALELLNEVGIEGLTTRKLAQKLGVEQPTLYWHVKNKRALLDALPAQILARQHDYSLPAAGESWQSFLRNNAMSFRRALLRYRDGAKVHLGTRPDEKQYDTVETQLRFMTENGFSLRDGLYAISAVSHFTLGAVLEQQEHTAALTDRPAAPDENLPPLLREALQIMDSDDGEQAFLHGLESLIRGFEVQLTALLQIV | 61.649 | 13.63
7 | TetRrevAtc4-40: revTetR(BD) A56P L60L A61G R62R (protein, Modified tetracycline repressor, revTetR(BD) A56P L60L A61G R62R) MSRLDKSKVINSALELLNEVGIEGLTTRKLAQKLGVEQPTLYWHVKNKRALLDALPVEILGRHHDYSLPAAGESWQSFLRNNAMSFRRALLRYRDGAKVHLGTRPDEKQYDTVETQLRFMTENGFSLRDGLYAISAVSHFTLGAVLEQQEHTAALTDRPAAPDENLPPLLREALQIMDSDDGEQAFLHGLESLIRGFEVQLTALLQIV | 56.743 | 14.428
8 | TetRrevAtc4-25: revTetR(BD) K48K V57L E58V I59T L60F R62S (protein, Modified tetracycline repressor, revTetR(BD) K48K V57L E58V I59T L60F R62S) MSRLDKSKVINSALELLNEVGIEGLTTRKLAQKLGVEQPTLYWHVKNKRALLDALALVTFASHHDYSLPAAGESWQSFLRNNAMSFRRALLRYRDGAKVHLGTRPDEKQYDTVETQLRFMTENGFSLRDGLYAISAVSHFTLGAVLEQQEHTAALTDRPAAPDENLPPLLREALQIMDSDDGEQAFLHGLESLIRGFEVQLTALLQIV | 98.629 | 12.116
9 | TetRrevAtc4-52: revTetR(BD) D53F A54T L55M I59S H63Q (protein, Modified tetracycline repressor, revTetR(BD) D53F A54T L55M I59S H63Q) MSRLDKSKVINSALELLNEVGIEGLTTRKLAQKLGVEQPTLYWHVKNKRALLFTMAVESLARQHDYSLPAAGESWQSFLRNNAMSFRRALLRYRDGAKVHLGTRPDEKQYDTVETQLRFMTENGFSLRDGLYAISAVSHFTLGAVLEQQEHTAALTDRPAAPDENLPPLLREALQIMDSDDGEQAFLHGLESLIRGFEVQLTALLQIV | 105.367 | 5.575
10 | TetRrevAtc4-5: revTetR(BD) I59F A61S H64Q A97T (protein, Modified tetracycline repressor, revTetR(BD) I59F A61S H64Q A97T) MSRLDKSKVINSALELLNEVGIEGLTTRKLAQKLGVEQPTLYWHVKNKRALLDALAVEFLSRHQDYSLPAAGESWQSFLRNNAMSFRRALLRYRDGTKVHLGTRPDEKQYDTVETQLRFMTENGFSLRDGLYAISAVSHFTLGAVLEQQEHTAALTDRPAAPDENLPPLLREALQIMDSDDGEQAFLHGLESLIRGFEVQLTALLQIV | 98.272 | 12.552
11 | TetRrevAtc4-48: revTetR(BD) D53N A54S L55L A56P V57V A61A R62L (protein, Modified tetracycline repressor, revTetR(BD) D53N A54S L55L A56P V57V A61A R62L) MSRLDKSKVINSALELLNEVGIEGLTTRKLAQKLGVEQPTLYWHVKNKRALLNSLPPEILALHHDYSLPAAGESWQSFLRNNAMSFRRALLRYRDGAKVHLGTRPDEKQYDTVETQLRFMTENGFSLRDGLYAISAVSHFTLGAVLEQQEHTAALTDRPAAPDENLPPLLREALQIMDSDDGEQAFLHGLESLIRGFEVQLTALLQIV | 110.179 | 16.146
12 | TetRrevAtc4-43: revTetR(BD) L52V A56V V57L I59T A61S (protein, Modified tetracycline repressor, revTetR(BD) L52V A56V V57L I59T A61S) MSRLDKSKVINSALELLNEVGIEGLTTRKLAQKLGVEQPTLYWHVKNKRALVDALVLETLSRHHDYSLPAAGESWQSFLRNNAMSFRRALLRYRDGAKVHLGTRPDEKQYDTVETQLRFMTENGFSLRDGLYAISAVSHFTLGAVLEQQEHTAALTDRPAAPDENLPPLLREALQIMDSDDGEQAFLHGLESLIRGFEVQLTALLQIV | 99.61 | 13.878
13 | TetRrevAtc4-53: revTetR(BD) D53F L55M I59S H63Q (protein, Modified tetracycline repressor, revTetR(BD) D53F L55M I59S H63Q) MSRLDKSKVINSALELLNEVGIEGLTTRKLAQKLGVEQPTLYWHVKNKRALLFAMAVESLARQHDYSLPAAGESWQSFLRNNAMSFRRALLRYRDGAKVHLGTRPDEKQYDTVETQLRFMTENGFSLRDGLYAISAVSHFTLGAVLEQQEHTAALTDRPAAPDENLPPLLREALQIMDSDDGEQAFLHGLESLIRGFEVQLTALLQIV | 87.055 | 6.945
14 | TetRrevAtc4-23: revTetR(BD) A50D L51V L52Q A54A L55L A61S (protein, Modified tetracycline repressor, revTetR(BD) A50D L51V L52Q A54A L55L A61S) MSRLDKSKVINSALELLNEVGIEGLTTRKLAQKLGVEQPTLYWHVKNKRDVQDALAVEILSRHHDYSLPAAGESWQSFLRNNAMSFRRALLRYRDGAKVHLGTRPDEKQYDTVETQLRFMTENGFSLRDGLYAISAVSHFTLGAVLEQQEHTAALTDRPAAPDENLPPLLREALQIMDSDDGEQAFLHGLESLIRGFEVQLTALLQIV | 105.95 | 21.606
15 | TetRrevAtc4-31: revTetR(BD) A50S D53Y A56G V57I H63Q (protein, Modified tetracycline repressor, revTetR(BD) A50S D53Y A56G V57I H63Q) MSRLDKSKVINSALELLNEVGIEGLTTRKLAQKLGVEQPTLYWHVKNKRSLLYGLGIEILARQHDYSLPAAGESWQSFLRNNAMSFRRALLRYRDGAKVHLGTRPDEKQYDTVETQLRFMTENGFSLRDGLYAISAVSHFTLGAVLEQQEHTAALTDRPAAPDENLPPLLREALQIMDSDDGEQAFLHGLESLIRGFEVQLTALLQIV | 65.039 | 2.181
16 | TetRrevAtc4-28: revTetR(BD) V57V E58K L60V R62G (protein, Modified tetracycline repressor, revTetR(BD) V57V E58K L60V R62G) MSRLDKSKVINSALELLNEVGIEGLTTRKLAQKLGVEQPTLYWHVKNKRALLDALAVKIVAGHHDYSLPAAGESWQSFLRNNAMSFRRALLRYRDGAKVHLGTRPDEKQYDTVETQLRFMTENGFSLRDGLYAISAVSHFTLGAVLEQQEHTAALTDRPAAPDENLPPLLREALQIMDSDDGEQAFLHGLESLIRGFEVQLTALLQIV | 85.141 | 4.217
